Test results: patent publication US11458141B2, “Aryl hydrocarbon receptor (AhR) agonists for the prevention and treatment of inflammatory disorders” (The Johns Hopkins University, priority 2017, dated 2022)

Target: T1, AHR (Mus musculus, UniProt P30561)
T1 construct: from tissue; host or cells: mouse intestine (ileum / intestinal mucosa), in vivo
T1 sequence (P30561 10-848): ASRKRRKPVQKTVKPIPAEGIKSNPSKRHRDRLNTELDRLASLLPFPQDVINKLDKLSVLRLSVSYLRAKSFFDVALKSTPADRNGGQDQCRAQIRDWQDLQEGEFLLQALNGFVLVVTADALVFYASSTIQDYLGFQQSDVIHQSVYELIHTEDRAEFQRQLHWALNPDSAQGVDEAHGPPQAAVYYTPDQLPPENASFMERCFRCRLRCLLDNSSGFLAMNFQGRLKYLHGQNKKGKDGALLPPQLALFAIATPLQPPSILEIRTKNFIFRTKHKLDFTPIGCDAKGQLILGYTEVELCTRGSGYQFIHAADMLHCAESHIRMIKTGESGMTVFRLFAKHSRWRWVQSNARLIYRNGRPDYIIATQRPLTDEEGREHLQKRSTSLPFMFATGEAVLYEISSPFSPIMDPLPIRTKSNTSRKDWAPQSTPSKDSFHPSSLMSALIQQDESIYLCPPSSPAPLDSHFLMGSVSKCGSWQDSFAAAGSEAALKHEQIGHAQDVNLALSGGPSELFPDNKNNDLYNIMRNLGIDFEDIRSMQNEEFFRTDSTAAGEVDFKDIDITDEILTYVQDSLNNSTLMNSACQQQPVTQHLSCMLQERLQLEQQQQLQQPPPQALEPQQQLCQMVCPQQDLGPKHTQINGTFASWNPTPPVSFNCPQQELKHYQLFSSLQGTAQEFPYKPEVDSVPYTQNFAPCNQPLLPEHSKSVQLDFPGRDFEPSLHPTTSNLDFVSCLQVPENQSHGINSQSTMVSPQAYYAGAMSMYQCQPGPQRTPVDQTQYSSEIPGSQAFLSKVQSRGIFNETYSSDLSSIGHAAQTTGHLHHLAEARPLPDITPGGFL
Experiment: AHR activation in mice by breast milk components (preliminary data)
Type: in vivo
From the text: iii. Other effects of breast milk. Although it is shown that breast milk inhibits TLR4 signaling in part via AHR activation (FIG. 15), potential AHR ligands within breast milk have not yet been thoroughly examined.

B1: epidermal growth factor (EGF): molecule enriched within breast milk shown to prevent NEC (protein, UniProt P01133 23-1207, looked up)
Pro-epidermal growth factor: PQHWSCPEGTLAGNGNSTCVGPAPFLIFSHGNSIFRIDTEGTNYEQLVVDAGVSVIMDFHYNEKRIYWVDLERQLLQRVFLNGSRQERVCNIEKNVSGMAINWINEEVIWSNQQEGIITVTDMKGNNSHILLSALKYPANVAVDPVERFIFWSSEVAGSLYRADLDGVGVKALLETSEKITAVSLDVLDKRLFWIQYNREGSNSLICSCDYDGGSVHISKHPTQHNLFAMSLFGDRIFYSTWKMKTIWIANKHTGKDMVRINLHSSFVPLGELKVVHPLAQPKAEDDTWEPEQKLCKLRKGNCSSTVCGQDLQSHLCMCAEGYALSRDRKYCEDVNECAFWNHGCTLGCKNTPGSYYCTCPVGFVLLPDGKRCHQLVSCPRNVSECSHDCVLTSEGPLCFCPEGSVLERDGKTCSGCSSPDNGGCSQLCVPLSPVSWECDCFPGYDLQLDEKSCAASGPQPFLLFANSQDIRHMHFDGTDYGTLLSQQMGMVYALDHDPVENKIYFAHTALKWIERANMDGSQRERLIEEGVDVPEGLAVDWIGRRFYWTDRGKSLIGRSDLNGKRSKIITKENISQPRGIAVHPMAKRLFWTDTGINPRIESSSLQGLGRLVIASSDLIWPSGITIDFLTDKLYWCDAKQSVIEMANLDGSKRRRLTQNDVGHPFAVAVFEDYVWFSDWAMPSVMRVNKRTGKDRVRLQGSMLKPSSLVVVHPLAKPGADPCLYQNGGCEHICKKRLGTAWCSCREGFMKASDGKTCLALDGHQLLAGGEVDLKNQVTPLDILSKTRVSEDNITESQHMLVAEIMVSDQDDCAPVGCSMYARCISEGEDATCQCLKGFAGDGKLCSDIDECEMGVPVCPPASSKCINTEGGYVCRCSEGYQGDGIHCLDIDECQLGEHSCGENASCTNTEGGYTCMCAGRLSEPGLICPDSTPPPHLREDDHHYSVRNSDSECPLSHDGYCLHDGVCMYIEALDKYACNCVVGYIGERCQYRDLKWWELRHAGHGQQQKVIVVAVCVVVLVMLLLLSLWGAHYYRTQKLLSKNPKNPYEESSRDVRSRRPADTEDGMSSCPQPWFVVIKEHQDLKNGGQPVAGEDGQAADGSMQPTSWRQEPQLCGMGTEQGCWIPVSSDKGSCPQVMERSFHMPSYGTQTLEGGVEKPHSLLSANPLWQQRALDPPHQMELTQ
modifications: Pro-epidermal growth factor
- AHR activation: can activate AHR in mice
